T1: Recombinant biotinylated Human BAFF-R Protein, Kactus BAF-HM40RB (human, UniProt Q96RJ3 1-78, biotinylated)
T1 construct: Bought; also called Kactus BAFF-R-his-Bio; Kactus BAFFR-his bio; not shown: his tag and biotin label
T1 sequence (looked up): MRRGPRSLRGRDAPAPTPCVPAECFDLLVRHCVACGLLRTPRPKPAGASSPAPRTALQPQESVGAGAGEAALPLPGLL

T2: Recombinant biotinylated Human CD19 Protein, Kactus CD2-HE121 (human, UniProt P15391 20-291, biotinylated)
T2 construct: Unrelated control antigen; also called Kactus-CD19-Fc; not shown: Fc by the short name
T2 sequence (looked up): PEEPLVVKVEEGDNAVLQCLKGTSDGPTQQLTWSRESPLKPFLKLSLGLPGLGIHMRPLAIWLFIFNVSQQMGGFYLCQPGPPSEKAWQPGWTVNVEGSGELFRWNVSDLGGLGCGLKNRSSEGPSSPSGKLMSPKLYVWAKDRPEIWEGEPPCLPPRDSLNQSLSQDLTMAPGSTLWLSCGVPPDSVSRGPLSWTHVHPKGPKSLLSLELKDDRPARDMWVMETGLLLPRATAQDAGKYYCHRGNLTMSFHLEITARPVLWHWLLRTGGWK

T3: Biotinylated Human CD27 Ligand, HIS, Avitag, ACRObiosystem CDL-H82Q9 (human, UniProt P32970 39-193, limits assumed, biotinylated)
T3 construct: Unrelated control antigen; also called ACRO-CD70-his; Acro-CD70-his; not shown: HIS tag and Avitag
T3 sequence (looked up): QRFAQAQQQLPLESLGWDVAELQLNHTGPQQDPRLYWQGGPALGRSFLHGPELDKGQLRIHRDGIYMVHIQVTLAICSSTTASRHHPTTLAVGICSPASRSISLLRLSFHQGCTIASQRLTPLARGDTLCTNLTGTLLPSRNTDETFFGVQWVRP

B1: Clone 10 IgG (Fc fusion)
chain: QSALTQPASVSGSPGQSITISCTGTSSDVGGYNYVSWYQQHPGKAPKLMIYEVSNRPSGVSNRFSGSKSGNTASLTISGLQAEDEADYYCSSYTSSSTYVFGTGTKVTVLGSRGGGGSGGGGSGGGGSLEQITLKESGPTLVKPTQTLTLTCTFSGFSLSTSGVGVGWIRQPPGKALEWLALIYWDDDKRYSPSLKSRLTITKDTSKNQVVLTMTNMDPVDTATYYCARYAGQYSGMWPWDYWGQGTLVTVSS
notes: also called anti-BAFF-R IgG; not shown: human IgG4 Fc
B2: Clone 10 (phage-displayed scFv monoclonal) (scFv)
scFv: B1 chain
notes: the phage coat protein fusion is not described; also called #10号克隆

Legend:
[1] = target: T4, human-IL10-his-Bio, Kactus IL1-HM410B (human, UniProt P22301 19-178, biotinylated); assay: ELISA with purified IgG-form antibody
T4 construct: Unrelated control antigen; also called Kactus-IL10-Bio-his; not shown: his tag and biotin label

[2] = target: T5, Streptavidin, Pierce 21125 (UniProt P22629 37-163, limits assumed); assay: ELISA with purified IgG-form antibody
T5 construct: Control protein coated on the plate; also called SA; Strepavidin

[3] = target: T1, Recombinant biotinylated Human BAFF-R …; assay: BLI, IgG on the sensor, antigen 100 to 6.25 nM, 1:1 model
[4] = target: T2, Recombinant biotinylated Human CD19 …; assay: phage ELISA
[5] = target: T3, Biotinylated Human CD27 Ligand, HIS, …; assay: phage ELISA
[6] = target: T5, Streptavidin, Pierce 21125; assay: phage ELISA

T5 sequence (P22629 37-163 limits assumed): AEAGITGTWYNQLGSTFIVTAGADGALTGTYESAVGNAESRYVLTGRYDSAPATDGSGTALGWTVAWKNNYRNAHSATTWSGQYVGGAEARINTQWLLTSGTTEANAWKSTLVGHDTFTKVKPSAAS
T4 sequence (P22301 19-178): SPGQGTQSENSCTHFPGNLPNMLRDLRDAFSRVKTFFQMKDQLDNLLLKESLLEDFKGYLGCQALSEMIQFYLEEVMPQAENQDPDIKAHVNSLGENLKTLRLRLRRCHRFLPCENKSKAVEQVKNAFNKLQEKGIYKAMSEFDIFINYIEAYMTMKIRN

Row | Binder | binding result [1] | binding result [2] | Kd [3] [nM] | koff [3] [s⁻¹] | kon [3] [M⁻¹ s⁻¹] | binding result [4] | binding result [5] | binding result [6]
1 | B1 | no binding | no binding | 0.762 | 8.72e-05 | 114000 |  |  | 
2 | B2 |  |  |  |  |  | no binding | no binding | no binding
